Columns and labels:
Assay type in all cases: binding
CA-14-CBD complex = assay: BLI of immobilized dimerization binders with CA-14 pre-equilibrated with CBD; conditions: for Koff / Kon: CBD +
Source text: (§1) With the purified DB nanobodies in hand, we first sought to determine their binding affinities to the CA-14-CBD. CBD might directly bind to selected dimerization binders, which can affect the affinity measurement. To rule out this possibility, the four nanobodies were biotinylated (FIG. 7c) and immobilized on streptavidin biosensors, and the interaction with CBD was detected by BLI. Only minimal binding between CBD and the dimerization binders was detected (data not shown). Moreover, the binding-dissociation dynamics of the CA-14-CBD complex can also affect the measurement of dimerization binder affinities. To address this, the affinity was measured by a BLI assay in which the biosensor-immobilized dimerization binders were interacted with CA-14 pre-equilibrated with varied concentrations of CBD (FIG. 9a). The concentrations of the CA-14-CBD complex in equilibrium were calculated based on input CA-14 and CBD concentrations. The CA-14-CBD complex concentration was approximated to be constant because only a minimal fraction of the complex bound to the biosensor tips during the BLI assay. It was confirmed that CA-14 only interacts with the dimerization binders in the presence of CBD (FIG. 3a). The KDs of the four dimerization binders varied from 56.4 nM to 19 μM (Table 5).
The nanobody binding kinetics was analyzed using an Octet™ RED96 system (ForteBio) and Streptavidin (SA) or Super Streptavidin (SSA) biosensors. For the anchor-binder analysis, 200 nM biotinylated anchor binders were immobilized on SSA biosensors with a binding assay buffer (1×PBS, pH 7.4, 0.05% Tween 20, 0.2% BSA, 3% methanol; Note: because CBD and THC were dissolved in methanol to make stock solutions, 3% methanol was added to the buffer to fairly compare samples and controls). Serial dilutions of CBD and THC were used for the anchor binder assays. Dissociation constants (KDs) of anchor binder-ligand interactions were calculated based on a steady-state analysis using Octet™ RED96 data analysis software. For the dimerization-binder analysis, 200 nM biotinylated dimerization binders were immobilized on SA biosensors with the binding assay buffer and then assayed with 1 μM CA-14 pre-equilibrated with serial dilutions of CBD or THC. KDs, kons, and koffs of the interactions between anchor binder-ligand complexes and dimerization binders were calculated based on a heterogeneous ligand model global fit (2:1) of the data and simulated binding equilibria of the anchor binder and CBD described in Supplementary Notes.
In order to determine the binding kinetics of our nanobody CID system we performed a series of bio layer interferometry (BLI) experiments. In all experiments we used an Octet RED96 system (ForteBio) and Streptavidin Biosensors (ForteBio). 200 nM biotinylated protein (FIGS. 7b & 4C) were immobilized on biosensors (Super Streptavidin, SSA used for anchor binder; Streptavidin, SA used for dimerization binder) with a binding assay buffer (1×PBS, pH 7.4, 0.05% Tween 20, 0.2% BSA, 3% methanol; Note: because CBD and THC were dissolved in methanol to make stock solutions, 3% methanol was added to the buffer to fairly compare samples and controls). Ligand loading was followed by a quenching step using free biotin. All experiments were performed using four measurements to control for sensor drift and unspecific binding: • No ligand, no analyte • With ligand, no analyte • No ligand, with analyte • With ligand, with analyte
Next, we wanted to determine the binding affinity between CA-14 bound to CBD (referred to as CA-14*) and a panel of DBs. We observed no detectable binding between CA-14 and any of the DBs (FIG. 3a). We also rely on the observation that the DBs have weak binding to CBD, and therefore we can assume that only CA-14* binds the DB loaded to the sensor. We control the CA-14* concentration by using a fixed concentration of 1 μM CA-14 pre-incubated to equilibrium with six different concentrations of CBD. […]

[1] = BLI of immobilized dimerization binders with CBD alone
Source text: as §1, with “It was confirmed that CA-14 only interacts with the dimerization binders in the presence of CBD (FIG. 3a). The KDs of the four dimerization binders varied from 56.4 nM to 19 μM (Table 5).” left out
We first determined the binding affinity between the CBD anchor 14 (CA-14) and CBD via steady-state analysis (FIG. 8). […] We observed minimal binding between DBs and CBD, but the KDs are too weak to be determined (data not shown). […]

[2] = Bio-Layer Interferometry (BLI) of immobilized anchor binders with unlabeled CBD or THC; conditions: unlabeled CBD, anchor binder immobilized on Super Streptavidin biosensors, steady-state analysis, read-out: dissociation constants (KDs) of anchor binder to CBD
Source text: To confirm that the nanobody binding only requires CBD, and not the linker between CBD and biotin or the streptavidin, we measured the binding affinity using unlabeled CBD. Anchor-binder hits were expressed in E. coli periplasm and purified by nickel-affinity and size-exclusion chromatography (SEC). Purified nanobodies were enzymatically biotinylated (FIG. 7a-b) and immobilized on streptavidin biosensors to quantify binding affinities to CBD or THC by Bio-Layer Interferometry (BLI) (FIG. 8a).
The nanobody binding kinetics was analyzed using an Octet™ RED96 system (ForteBio) and Streptavidin (SA) or Super Streptavidin (SSA) biosensors. […] Dissociation constants (KDs) of anchor binder-ligand interactions were calculated based on a steady-state analysis using Octet™ RED96 data analysis software. […] KDs, kons, and koffs of the interactions between anchor binder-ligand complexes and dimerization binders were calculated based on a heterogeneous ligand model global fit (2:1) of the data and simulated binding equilibria of the anchor binder and CBD described in Supplementary Notes. […]
We first determined the binding affinity between the CBD anchor 14 (CA-14) and CBD via steady-state analysis (FIG. 8). […] We observed minimal binding between DBs and CBD, but the KDs are too weak to be determined (data not shown).

Kd (CA-14-CBD complex; BLI, CA-14* = CA-14 bound to CBD, read-out: CA-14*'s affinity to DB-21 (KBC/α)) | binding between CBD and the dimerization binders ([1]; BLI, CBD alone, data not shown) | Kd ([1]; worked out from KBC/α 56 nM with α=1,000 as a reasonable guess, read-out: KBC (DB-21's affinity to CBD)) | Kd [2] | Molecule | Koff (CA-14-CBD complex) | Kon (CA-14-CBD complex) | dissociation rate koff (CA-14-CBD complex; CA-14 with CBD)
– | – | – | – | DB-18: dimerization binder nanobody; CDRs GYSRADD, FGETDSF, YHNYTNMFE (SEQ ID NO: 61-63) (protein, left off: small tags and cut ends) VHH: EVQLQASGGGFVQPGGSLRLSCAASGGYSRADDMGWFRQAPGKEREFVSAISFGETDSFYYADSVKGRFTISRDNSKNTVYLQMNSLRAEDTATYYCAYHNYTNMFEYWGQGTQVTVSS | 227 10^−4s^−1 | 0.41 10^5 M^−1s^−1 | –
– | – | – | – | DB-11: dimerization binder nanobody; CDRs TTSDNDT, WNGGRDE, YQDNRSWQE (SEQ ID NO: 40-42) (protein, left off: small tags and cut ends) VHH: EVQLQASGGGFVQPGGSLRLSCAASGTTSDNDTMGWFRQAPGKEREFVSAISWNGGRDEYYADSVKGRFTISRDNSKNTVYLQMNSLRAEDTATYYCAYQDNRSWQEYWGQGTQVTVSS | 840 10^−4s^−1 | 0.61 10^5 M^−1s^−1 | –
– | – | – | – | DB-6: dimerization binder nanobody; CDRs RFSWGEE, WAATPWQ, DEWHIGHVS (SEQ ID NO: 25-27) (protein, left off: small tags and cut ends) VHH: EVQLQASGGGFVQPGGSLRLSCAASGRFSWGEEMGWFRQAPGKEREFVSAISWAATPWQYYADSVKGRFTISRDNSKNTVYLQMNSLRAEDTATYYCADEWHIGHVSYWGQGTQVTVSS | 1,820 10^−4s^−1 | 0.096 10^5 M^−1s^−1 | –
0.056 µM | very weakly | 56 µM | – | DB-21: dimerization binder nanobody; CDRs TTYGQTN, GLQGRDL, FHDFLRMWE (SEQ ID NO: 70-72) (protein, left off: small tags and cut ends) VHH: EVQLQASGGGFVQPGGSLRLSCAASGTTYGQTNMGWFRQAPGKEREFVSAISGLQGRDLYYADSVKGRFTISRDNSKNTVYLQMNSLRAEDTATYYCAFHDFLRMWEYWGQGTQVTVSS | 6.17 10^−4s^−1 | 0.11 10^5 M^−1s^−1 | 0.000617 s⁻¹
– | – | – | 6 µM | CA-14: anchor binder nanobody; CDR1 SRSRQYD, CDR2 SNQDQPP, CDR3 FKQHHANGA (SEQ ID NO: 1-3) (protein, left off: small tags and cut ends) VHH: EVQLQASGGGFVQPGGSLRLSCAASGSTSRQYDMGWFRQAPGKEREFVSAISSNQDQPPYYADSVKGRFTISRDNSKNTVYLQMNSLRAEDTATYYCAFKQHHANGAYWGQGTQVTVSS | – | – | –

Reference: patent US12415869B2, “Chemically induced protein dimerization systems” (UNIVERSITY OF WASHINGTON, priority 2019, dated 2025)
